According to patent publication US20220226469A1:
Substitutions are numbered along the chain they refer to.

B1: SIRP1 (antibody, mouse IgG1, kappa, V domains shown)
VH: QVQLQQSGAELMKPGASVKISCKATGYSFTKYWIEWVKQRPGHGLEWIGEILPGSVITNYNEKFKGKATFTADTSSNTVYMQLSSLTSEDSAVYYCTKWGLYDSDDGVDYWGQGTTLTVSS
VL: ENVLTQSPAIMSASLGEKVTMSCRASSGVNYMYWYQQKSDASPKLLIYYTSILAPGVPARFSGSGSGNSYSLTISSMEGEDAATYYCQQFTSSPYTFGGGTKLEIKR
B2: SIRP10 (antibody, V domains shown)
VH: EVQLQESGAELVRPGTSVKMSCKAAGYTFSNYLIGWIKQRPGHGLEWIGDIYPGDNNTNYNEKFRVKATLTADTSSNTAYMHLTSLTSEDSAIYYCAGGTDYDGFANWGQGTLVTVSA
VL: ENVLTQSPAIMSASLGEKVTMSCRASSSVNYMYWYQQKSDASPKLWIYYTSKLAPGVPARFSGSGSGNSYSLTISSMEGEDAATYYCQQFTSSPFTFGSGTKLEIK
B3: SIRP12 (antibody, human IgG4 S228P, kappa, V domains shown)
VH: QVQLVQSGAEVKKPGASVKVSCKASGYSFTDYFLNWVRQAPGQGLEWMGRINPYNGDSFINQNFRDRVTMTRDTSTSTVYMELSSLRSEDTAVYYCARGGYDGYFIAYFDYWGAGTTVTVSS
VL: DIQMTQSPSSLSASVGDRVTITCKASQDINSHLSWYQQKPGKAPKLLIYRANRLATGVPSRFSGSGSGTDFTFTISSLEYEDIATYYCLQYDEFPYTFGGGTKLEIKR
B4: SIRP15 (antibody, human IgG4 S228P, kappa, V domains shown)
VH: B3 VH with A16S, M70I, R72A, T74K, V79A
VL: B3 VL
B5: SIRP18 (antibody, human IgG4 S228P, kappa, V domains shown)
VH: EVQLVQSGAEVKKPGESLKISCKGSGYSFTDYFLNWVRQMPGKGLEWMGRINPYNGDSFINQNFRDQVTISADKSISTAYLQWSSLKASDTAMYYCARGGYDGYFIAYFDYWGAGTTVTVSS
VL: B3 VL
B6: SIRP2 (antibody, mouse IgG1, kappa, V domains shown)
VH: EVKLVESGGGLVQPGGSLKLSCAASGFSFSGCTMSWIRQTPERRLEWVAYISNGGDITYYPDTVKGRFTISRDNAKNSLYLQMSSLKSEDTAMYYCARLDGYYYAMDFWGQGTSVTVSS
VL: DILLTQSPAILSVSPGERVSFSCRASQSIGTSIHWYQQRTNGSPRLLIKYGSESISGIPSRFSGSGSGTDFTLSINSVESEDIADYYCQQSNTWPLTFGDGTKLELKR
B7: SIRP21 (antibody, human IgG4 S228P, kappa, V domains shown)
VH: B3 VH with R72V
VL: B3 VL
B8: SIRP23 (antibody, human IgG4 S228P, kappa, V domains shown)
VH: EVQLQQSGPDLVKPGASVKISCKASGYSFTDYFLNWVKQSHGKSLEWIGRINPYNGDSFINQNFRDKATLTVDKSSTTAHMDLLSLTSEDSAIYYCGRGGYDGYFIAYFDYWGQGSLVTVSA
VL: DIKMTQSPSSMYASLGQRVTITCKASQDINSHLSWFQEKPGKSPKTLIYRANRLADGVPSRFSGSGSGQDYFLTISSLEYEDVGIYYCLQYDEFPYTFGGGTKLEIKR
B9: SIRP3 (antibody, mouse IgG1, kappa, V domains shown)
VH: EVQLQQSGPEVVKPGASVKMSCKASGYTFTSYVMHWVKQKPGQGLEWIGYINPYNDGPKYNEKFKGKATLTSDKSSSTAYMELSSLTSEDSAVYFCARWDYFNSASGFAFWGQGTLVTVSA
VL: EIVLTQSPTTMAASPGEKITIICSASSIIGSDFLHWYQQRPGFSPKFLIYRTSILASGVPTRFTGSGSGTSYSLTIGTMEAEDVATYYCQQGSGLPLTFGSGTKLEMKR
B10: SIRP4 (antibody, V domains shown)
VH: B8 VH
VL: DIKLTQSQSSMYSSLGQRVTITCKASQDINSHLSWFQEKPGKSPKTLIYRANRLADGVPSRFSGSGSGQDYFLTISSLEYEDVGIYYCLQYDEFPYTFGGGTKLEIK
B11: SIRP5 (antibody, V domains shown)
VH: QVQLQQSAAELARPGASVKMSCKASGYTFTSYTMHWVKQRPGQGLEWIGYINPTIGYTEYNQKFKDKTTLTADKSSSTAYMQLSSLTSEDSAVYYCVRLVITSVLGRAMDYWGQGTSVTVSS
VL: QIVLTQSPALMSASPGEKVTMTCSASSSVSYMYWFQQKPRSSPKPWIYLTSNLASGVPARFSGSGSGTSYSLTISSMEAEDAATYYCQQWSGNPFTFGSGTKLEIK
B12: SIRP6 (antibody, V domains shown)
VH: QIQLVQSGPELKKPGETVKISCKASGYTFTDYGVNWVKQGPGKDLQWMGWVNTNTRESTYVEDFKGRFAFSLETSASTAYLQINNLKNEDSSTYFCARGAYDAYYYYYGMDYWGQGTSVTVSS
VL: DIQMTQSPASLSASVGETVTITCRASENIYSYLTWYKQKQGKSPQLLVYNAKTLAEGVPSRFSGSGSGTQFSLKINSLQPEDFGSYYCQHHYGSPRTFGGGTKLEIK
B13: SIRP7 (antibody, V domains shown)
VH: EVQLQQSGPELVKPGASVKMSCRASGYTFSTYVMHWIKHRPGQGLEWIGYINPNNDGPNYNEKFKGKATLTSDISSSTAYMELSSLTSEDSAVYFCSRWDSYNSAAGFAYWGHGTLVTVSA
VL: EIVLTQSPTTMAASPGEKITIICSASSSISSNFLHWYQQKPGFSPRFLIYRTSILASGVPTRFSGSGSGTSYSLTIDTMEAEDVATYYCQQGSGLPLTFGSGTKLEIK
B14: SIRP8 (antibody, V domains shown)
VH: EVQLQESGGGLVKPGGSLKLSCAASGFTLSTYTMSWVRQTPEKRLEWVAIITSGDTYTYYPDSVKGRFTISRDNAKNTLYLQMSSLKSEDTGMYYCTRDRPLFHWGQGTTLTVST
VL: QIVLTQSPAIMSASPGEKVTMTCSASSSVSYMYWYQQKPGSSPRLLIYDTSNLASGVPVRFSGSGSGTSYSLTISRMEAEDAATYYCQQWSSFPWTFGGGTKLEIK
B15: SIRP9 (antibody, V domains shown)
VH: EVQLQESGAELVRPGASVKLSCKALGYTFTDYEIHWVKETPVYGLEWIGDIHPGSGGTANNQKFKGKATLTADKSSNTAYMELSSLTSEDSAVYYCTRAVSGYYAMDYWGQGTSVTVSS
VL: DIQMTQSSSSFSGSLGDRLTINCKASEDIYDRVAWYQQKPGNAPRLLISGTASLETGVLSRFSGSGSGKDYTLSINGLQAEDVATYYCQQYWTTPWTFGGGTKLEIK

These binders were tested against Fc tagged human SIRPα (ACRO #SIG-H5251, genotype variant 1) (human) (UniProt P78324) (assay: solid-phase ELISA on plate-coated Fc tagged human SIRPα; apparent Kd).
Sequence of Fc tagged human SIRPα (ACRO #SIG-H5251, genotype variant 1) (human) (P78324 31-370, change not shown): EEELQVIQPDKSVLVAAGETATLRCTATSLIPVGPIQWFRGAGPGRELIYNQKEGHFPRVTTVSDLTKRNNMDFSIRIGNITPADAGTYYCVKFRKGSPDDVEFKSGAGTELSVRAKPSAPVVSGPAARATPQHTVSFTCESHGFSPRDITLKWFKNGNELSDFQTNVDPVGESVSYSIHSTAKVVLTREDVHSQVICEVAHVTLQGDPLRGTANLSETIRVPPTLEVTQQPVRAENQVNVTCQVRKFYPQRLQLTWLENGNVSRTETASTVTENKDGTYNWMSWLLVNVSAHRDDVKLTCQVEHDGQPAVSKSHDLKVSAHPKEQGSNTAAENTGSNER

Point of comparison: B4, Kd 0.608 nM. Against it:
- B1 — 16-fold lower, 0.039 nM
- B2 — higher, > 10 nM
- B3 — 3.7-fold lower, 0.165 nM
- B5 — 1.7-fold lower, 0.364 nM
- B6 — 3.3-fold lower, 0.182 nM
- B7 — 2.2-fold lower, 0.274 nM
- B8 — 3.7-fold lower, 0.164 nM
- B9 — 2.1-fold lower, 0.289 nM
- B10 — 3.8-fold lower, 0.161 nM
- B11 — 9.4-fold lower, 0.065 nM
- B12 — 4.6-fold lower, 0.131 nM
- B13 — 3.1-fold lower, 0.197 nM
- B14 — 11-fold lower, 0.057 nM
- B15 — within 1.5-fold, 0.583 nM
